Assay results as given in patent publication US20230331820A1 (GlaxoSmithKline, published 2023).
Positions count from the first letter of the chain named. Like-named read-outs stand apart in the source and are kept apart here.

B1: mAb clone 14 (antibody, V domains shown)
VH: QVQLQQSGAELMKPGASVKISCKATGYTFSSYWIEWVKQRPGHGLEWIGEILPGSGSTNYNEKFKGKATFTADTSSNTAYMQLSSLTSEDSAVYYCASGSAGNYYGSSYEAMDYWGQGTSVTVSS
VL: DIVLTQSPASLAVSLGQRATISCRASKSVSTSGYSYMHWYQQKPGQPPKLLIYLASNLESGVPARFSGSGSGTDFTLNIHPVEEEDAATYYCQHSRELPLTFGAGTKLELK
notes: also called GEGI/14IIa
B2: mAb clone 19 (antibody, V domains shown)
VH: QVQLQQSGAELVRPGVSVKISCKGSGYTFTDYAMHWVKQSHAKSLEWIGVISTYYGDARYNQKFKGKATMTVDKSSSTAYMELARLTSEDSAIYYCARRGITVVADYAMDYWGQGTSVTVSS
VL: QIVLTQSPAIMSASPGEKVTMSCSASSSVTYMHWYQQKSGTSPKRWIYDTSKLASGVPARFSGSGSGTSYSLTISSMEAEDAATYYCQQWSSNPPTFGGGTKLEIK
B3: mAb clone 44 (antibody, V domains shown)
VH: EVQLQQSGPELEKPGASVKISCKASGYSFTGYNMNWVKQSNGKSLEWIGNIDPYYGGIRYNQKFKGKATLTVDKSSSTAYMQLKSLTSEDSAVYYCAREDRYLVHYYAMDYWGQGTSVTVSS
VL: B2 VL with S22T, V29I, T30S, S39P, Q88H, W90R, N93Y, P95Y
B4: mAb clone 47 (antibody, V domains shown)
VH: EVKLVESGGGLVQPGGSLRLSCATSGFTFTDYYMSWVRQPPGKALEWLGFIRNKANGYTTEYSASVKGRFTISRDNSQSILYLQMNTLRAEDSATYYCARDRPGFDYWGQGTTLTVSS
VL: NIVLTQSPASLAVSLGQRATISCRASESVDSFGNSFMHWYQQKPGQPPKLLIYLASNLESGVPARFSGSGSRTDFTLTIDPVEADDAATYYCQQNNEDPPWTFGGGTKLEIK
B5: mAb clone 35, 36 (antibody, V domains shown)
VH: QVQLKESGPGLVAPSQSLSITCTVSGFSLTSYGVHWVRQPPGKGLEWLGVIWAGGSTNYNSALMSRLSISKDNSKSQVFLKMNSLQTDDTAMYYCATDGYKFFYYAMDYWGQGTSVTVSS
VL: DIVMTQAAPSVPVTPGESVSISCRSSKSLLHSNGNTYLYWFLQRPGQSPQLLIYRMSNLASGVPDRFSGSGSGTAFTLRISRVEAEDVGVYYCMQHLEYPFTFGSGTKLEIK
B6: mAb clone 39 (antibody, V domains shown)
VH: EVKLVESGGGLVQPGGSLKLSCAASGFTFSSYTMSWVRQTPEKRLEWVAYISNGGGSTYYPDTVKGRFTISRDNAKNTLYLQMSSLKSEDTAMYYCARGVSYYGDLYYFDYWGQGTTLTVSS
VL: DVVVTQTPLSLPVSFGDQVSISCRSSQSLANSYGNTYLSWYLHKPGQSPQLLIYGISNRFSGVPDRFSGSGSGTDFTLKISTIKPEDLGMYYCLQGTHQPWTFGGGTKLEIK
B7: mAb clone 34 (antibody, V domains shown)
VH: EVKLVESGGGLVQPGGSLKLSCATSGFTFSDYYMYWVRQTPEKRLEWVAYISNGGDSTYYPDTVKGRFTISRDNAKNTLYLQMSRLKSEDTAMYYCARSYYGNPFPYWGQGTLVTVSA
VL: ENVLTQSPAIMSASPGEKVTMTCRASSSVSSSYLHWYQQKSGASPKLWIYSTSNLASGVPARFSGSGSGTSYSLTISSVEAEDAATYYCQQYSGYPLTFGAGTKLELK
B8: mAb clone 43 (antibody, V domains shown)
VH: DVKLVESGGGLVKPGGSLKLSCAASGFTFSSYTMSWVRQTPEKRLEWVATISSGGSYTYYPDSVKGRFTISRDNAKNTLYLQMSSLKAEDTAMYYCTRGGYGSSFENYFDYWGQGTTLTVSS
VL: DIVMSQSPSSLAVSAGEKVTMSCKSSQSLLNSRTRKNYLAWYQQKPGQSPKLLIYWASTRESGVPDRFTGSGSGTDFTLTISSVQAEDLAVYSCKQSYNLPLTFGAGTKLELK
notes: also called GEGI/43IIa

How the values were obtained:
[1] = molecular target: gEgI mutant (P319D): HSV2 gEgI mutant heterodimer comprising gE and gI ectodomains with mutation P319D in gE (HSV2, UniProt P89475 21-416; P06764 21-256); assay: ELISA, supernatant
[2] = molecular target: gEgI mutant (P317R): HSV2 gEgI mutant heterodimer comprising gE and gI ectodomains with mutation P317R in gE (HSV2, UniProt P89475 21-416; P06764 21-256); assay: ELISA, supernatant
[3] = molecular target: gEgI mutant (338): HSV2 gEgI mutant heterodimer comprising gE and gI ectodomains with insertion of a (HSV2, UniProt P89475 21-416; P06764 21-256); assay: ELISA, supernatant
[4] = molecular target: T1, gE WT: HSV2 gE wildtype ectodomain (HSV2, UniProt P89475 21-416); assay: ELISA, supernatant
[5] = molecular target: gEgI mutant (R320D): HSV2 gEgI mutant heterodimer comprising gE and gI ectodomains with mutation R320D in gE (HSV2, UniProt P89475 21-416; P06764 21-256); assay: ELISA, supernatant
[6] = molecular target: T2, gEgI WT: HSV2 gEgI heterodimer comprising gE and gI wildtype ectodomains (HSV2, UniProt P89475 21-416; P06764 21-256); assay: ELISA, supernatant
[7] = molecular target: T3, gI WT: HSV2 gI wildtype ectodomain (HSV2, UniProt P06764 21-256); assay: ELISA, supernatant
[8] = molecular target: T2, gEgI WT: HSV2 gEgI heterodimer …; assay: SPR binning; gEgI captured by mAb 40
[9] = molecular target: T2, gEgI WT: HSV2 gEgI heterodimer …; assay: SPR binning; gEgI captured by mAb 39
[10] = molecular target: T2, gEgI WT: HSV2 gEgI heterodimer …; assay: SPR binning; gEgI captured by mAb 34
[11] = molecular target: T2, gEgI WT: HSV2 gEgI heterodimer …; assay: SPR binning; gEgI captured by mAb 42
[12] = molecular target: T2, gEgI WT: HSV2 gEgI heterodimer …; assay: SPR binning; gEgI captured by mAb 15
[13] = molecular target: T2, gEgI WT: HSV2 gEgI heterodimer …; assay: SPR binning; gEgI captured by mAb 45
[14] = molecular target: T2, gEgI WT: HSV2 gEgI heterodimer …; assay: Biacore SPR, gEgI HEK BMP1063 at 10 µg/ml for 180 s over the mAb
[15] = molecular target: T2, gEgI WT: HSV2 gEgI heterodimer …; assay: SPR binning; gEgI captured by mAb 24
[16] = molecular target: T3, gI WT: HSV2 gI wildtype ectodomain; assay: ELISA, supernatant; remark: listed apart in the source
[17] = molecular target: T2, gEgI WT: HSV2 gEgI heterodimer …; assay: Biacore SPR, gEgI CHO BMP1181 at 10 µg/ml for 180 s over the mAb
[18] = molecular target: T2, gEgI WT: HSV2 gEgI heterodimer …; assay: SPR binning; gEgI captured by mAb 10
[19] = molecular target: T2, gEgI WT: HSV2 gEgI heterodimer …; assay: SPR binning; gEgI captured by mAb 17
[20] = molecular target: T2, gEgI WT: HSV2 gEgI heterodimer …; assay: SPR binning; gEgI captured by mAb 9
[21] = molecular target: T2, gEgI WT: HSV2 gEgI heterodimer …; assay: SPR binning; gEgI captured by mAb 20
[22] = molecular target: T2, gEgI WT: HSV2 gEgI heterodimer …; assay: SPR binning; gEgI captured by mAb 19
[23] = molecular target: T2, gEgI WT: HSV2 gEgI heterodimer …; assay: SPR binning; gEgI captured by mAb 5
[24] = molecular target: T1, gE WT: HSV2 gE wildtype ectodomain; assay: ELISA, supernatant; remark: listed apart in the source

Row | Binder | binding result [1] | binding result [2] | binding result [3] | binding result [4] | binding result [5] | binding result [6] | binding result [7] | RU [8] [RU] | RU [9] [RU] | RU [10] [RU] | RU [11] [RU] | RU [12] [RU] | RU [13] [RU] | RU [15] [RU] | binding result [16] | RU [18] [RU] | RU [19] [RU] | RU [20] [RU] | RU [21] [RU] | RU [22] [RU] | other results
1 | B1 | binds | binds | binds | binds | binds | binds | no binding | – | – | – | – | – | – | – | – | – | – | – | – | – | –
2 | B2 | – | – | binds | no binding | – | – | – | 13.9 | 16.2 | 9.3 | 16.3 | 23 | 9.2 | 3.2 | no binding | 24.4 | 18.1 | 6.4 | 9 | -3.4 | RU Ag/250 RU mAbs [14]: 7.88 RU Ag/250 RU mAbs; RU Ag/250 RU mAbs [17]: 6.49 RU Ag/250 RU mAbs; RU [23]: 17.2 RU
3 | B3 | binds | binds | binds | binds | binds | binds | – | – | – | – | – | – | – | – | binds | – | – | – | – | – | –
4 | B4 | no binding | no binding | no binding | binds | no binding | binds | no binding | – | – | – | – | – | – | – | – | – | – | – | – | – | –
5 | B5 | binds | binds | binds | binds | binds | binds | – | – | – | – | – | – | – | – | binds | – | – | – | – | – | –
6 | B6 | – | – | binds | – | – | – | no binding | -1.2 | 1.3 | -6.4 | 0.1 | -4.8 | -5.4 | -0.9 | – | 2.3 | -0.6 | -1.5 | 3.1 | -7.2 | binding result [24]: no binding; RU [23]: 0.6 RU
7 | B7 | – | – | binds | no binding | – | – | no binding | -4.1 | -1.5 | -11.1 | -2.4 | -2.7 | -6.3 | -3.6 | – | 1.3 | -3.3 | -3.9 | 0.4 | -8.4 | RU Ag/250 RU mAbs [14]: 14.4 RU Ag/250 RU mAbs; RU Ag/250 RU mAbs [17]: 12.8 RU Ag/250 RU mAbs; RU [23]: -2.1 RU
8 | B8 | binds | binds | binds | binds | binds | binds | no binding | – | – | – | – | – | – | – | – | – | – | – | – | – | –
